From patent publication US20220153875A1, “ANTIGEN-BINDING MOLECULE CONTAINING ANTIGEN-BINDING DOMAIN OF WHICH BINDING ACTIVITY TO ANTIGEN IS CHANGED DEPENDING ON MTA, AND LIBRARY FOR OBTAINING SAID ANTIGEN-BINDING DOMAIN” (Chugai Seiyaku Kabushiki Kaisha, priority 2019, published 2022)

Key:
[1] = Biacore T200: rabbit B cell cloning antibodies, binding to MTA; conditions: Biacore T200, 25° C.; read-out: Affinity KD, MTA
Description: (§1) The antibody of interest was captured on Sensor Chip Protein A (GE healthcare) with protein A pre-immobilized, or on an immobilized surface prepared by binding onto Streptavidin-immobilized Sensor chip SA (GE Healthcare) the Capture Select Biotin Anti-IgG-Fc (Hu) (Thermo fisher scientific), which is a biotinylated anti-human IgG CH1 molecule, and interacted with MTA (Sigma-Aldrich) or MTA analogs. As MTA analogs, adenosine (Wako) (measured concentration in tumor tissue: 182 nM) and S-(5′-adenosyl)-L-homocysteine, (SAH) (Sigma-Aldrich) (measured concentration in tumor tissue: 30 nM) were selected based on the structural similarity to MTA and the concentration in tumor tissue of tumor-bearing mice of an MTAP-deficient cell line. 20 mM ACES-NaOH, 150 mM NaCl, 0.05% Tween20, 0.05% DMSO was used as the running buffer. MTA or adenosine or SAH was allowed to interact at a flow rate of 30 μL/min for 120 seconds and then dissociated in the running buffer. The interaction was measured at 25° C. and the same buffer as the running buffer was used to dilute MTA and its analogs.
(§2) The dissociation constant […]) (M) was calculated based on the binding rate constant ka (1/Ms) and the dissociation rate constant kd (1/s), which are kinetic parameters calculated from the sensorgrams obtained by the measurement. Alternatively, the dissociation constant KD (M) was calculated using steady state analysis. […]

[2] = Biacore T200: rabbit B cell cloning antibodies, binding to adenosine; conditions: Biacore T200, 25° C.; read-out: Affinity KD, Adenosine
Description: as §1, §2

[3] = Biacore T200: rabbit B cell cloning antibodies, binding to SAH; conditions: Biacore T200, 25° C.; read-out: Affinity KD, SAH
Description: as §1, §2

[4] = Surface plasmon resonance: humanized MTA0303 and humanized MTA0330, binding to MTA; conditions: humanized antibodies; 25° C.; read-out: Affinity KD, MTA
From the text: (§3) […] (GE Healthcare) was used to analyze binding to MTA and MTA analogs (adenosine, SAH) to verify whether humanized MTA0303 and humanized MTA0330 specifically bind to MTA.
as §1, with “(Sigma-Aldrich),” for “(Sigma-Aldrich)”, “or” for “or MTA analogs. As MTA analogs,”, “(Wako), or” for “(Wako) (measured concentration in tumor tissue: 182 nM) and”, “(Sigma-Aldrich).” for “(Sigma-Aldrich) (measured concentration in tumor tissue: 30 nM) were selected based on the structural similarity to MTA and the concentration in tumor tissue of tumor-bearing mice of an MTAP-deficient cell line.”, “MTA, or adenosine, or SAH.” for “MTA and its analogs.”
(§4) The dissociation constant KD (M) was calculated based on the binding rate constant ka (1/Ms) and the dissociation rate constant kd (1/s), which are kinetic parameters calculated from the sensorgrams obtained by the measurement. Alternatively, the dissociation constant KD (M) was calculated using steady state analysis. Biacore 1200 Evaluation Software (GE Healthcare) was used to calculate each parameter.

[5] = Surface plasmon resonance: humanized MTA0303 and humanized MTA0330, binding to adenosine; conditions: humanized antibodies; 25° C.; read-out: Affinity KD, Adenosine
From the text: as §3
as §1, with “(Sigma-Aldrich),” for “(Sigma-Aldrich)”, “or” for “or MTA analogs. As MTA analogs,”, “(Wako), or” for “(Wako) (measured concentration in tumor tissue: 182 nM) and”, “(Sigma-Aldrich).” for “(Sigma-Aldrich) (measured concentration in tumor tissue: 30 nM) were selected based on the structural similarity to MTA and the concentration in tumor tissue of tumor-bearing mice of an MTAP-deficient cell line.”, “MTA, or adenosine, or SAH.” for “MTA and its analogs.”
as §4

[6] = Surface plasmon resonance: humanized MTA0303 and humanized MTA0330, binding to SAH; conditions: humanized antibodies; 25° C.; read-out: Affinity KD, SAH
From the text: as §3
as §1, with “(Sigma-Aldrich),” for “(Sigma-Aldrich)”, “or” for “or MTA analogs. As MTA analogs,”, “(Wako), or” for “(Wako) (measured concentration in tumor tissue: 182 nM) and”, “(Sigma-Aldrich).” for “(Sigma-Aldrich) (measured concentration in tumor tissue: 30 nM) were selected based on the structural similarity to MTA and the concentration in tumor tissue of tumor-bearing mice of an MTAP-deficient cell line.”, “MTA, or adenosine, or SAH.” for “MTA and its analogs.”
as §4

hIL-6R [7] = biological target: T1, hIL-6R (Homo sapiens, UniProt P08887); experiment: Biacore T200: hIL-6R binding amount at different MTA concentrations; conditions: MTA 0.1, 1, 10, 100 μM, 25° C.
T1 sequence (P08887 20-357): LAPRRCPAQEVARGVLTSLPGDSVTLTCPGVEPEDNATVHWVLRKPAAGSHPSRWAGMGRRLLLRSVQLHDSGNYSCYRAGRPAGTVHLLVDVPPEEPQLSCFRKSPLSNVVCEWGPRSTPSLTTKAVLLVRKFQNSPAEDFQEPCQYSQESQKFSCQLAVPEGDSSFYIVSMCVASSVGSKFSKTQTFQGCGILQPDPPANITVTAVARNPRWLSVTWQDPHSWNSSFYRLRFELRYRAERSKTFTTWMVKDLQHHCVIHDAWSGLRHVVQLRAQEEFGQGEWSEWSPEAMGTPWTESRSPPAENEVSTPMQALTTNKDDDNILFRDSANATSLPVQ
Description: For the MTA-dependently binding anti-hIL-6R antibody cloned in Example (4-5) (6RS2T007H-F760mnN17/6RS2T007L-KT0), the change in the amount of antigen binding dependent on MTA concentration was assessed using Biacore T200 (GE Healthcare). The measurement was done at 25° C., using 20 mM ACES added with MTA at final concentrations of 0.1, 1, 10, and 100 μM, 150 mM NaCl, 0.05% (w/v) Tween20, pH 7.4 as the running buffer Series S Sensor Chip CM4 was used as the sensor chip, ProA/G was immobilized by amine coupling with the antibody mobilised on the top of that, after which hIL-6R was allowed to interact as an analyte to measure the change in binding amount between antigen-antibody. The running buffer was used to dilute the antigen.

[8] = Biacore T200: binding of humanized SMB0002 to MTA; conditions: 37° C.; read-out: Affinity KD, MTA
Description: (§5) CaptureSelect™ Biotin Anti-IgG-CH1 Conjugate (Thermo fisher scientific), which is a biotinylated anti-human IgG CH1 molecule, was bound to Sensor Chip SA (GE Healthcare) onto which streptavidin was immobilized in advance, then humanized SMB0002 was allowed to be captured, and MTA (Sigma-Aldrich) or adenosine (Wako) was allowed to interact with humanized SMB0002. 50 mM Tris-HCl, 150 mM NaCl (Takara, T903), 0.02% (w/v) Tween20, 5% DMSO was used as the running buffer. MTA or adenosine was allowed to interact with humanized SMB0002 for 42 seconds at a flow rate of 100 μL/min and then dissociated from the antibody in the running buffer. The interaction was measured at 37° C., and the same buffer as the running buffer was used to dilute MTA or adenosine.
as §4, with “T200” for “1200”

[9] = Biacore T200: binding of humanized SMB0002 to adenosine; conditions: 37° C.; read-out: Affinity KD, Adenosine
Description: as §5
as §4, with “T200” for “1200”

hIL-6R [10] = biological target: T1, hIL-6R; experiment: Surface plasmon resonance (Biacore T200): C03H-BH076N17/C03L-KT0 binding to hIL-6R under MTA or adenosine
Description: Using Biacore T200 (GE Healthcare), the effects of MTA and adenosine on the antigen-antibody reaction between C03H-BH076N17/C03L-KT0 and hIL-6R were evaluated. TBS, 0.02% (w/v) Tween20, pH 7.4 was used as the running buffer. ProA/G (Pierce) was immobilized onto Sensor Chip CM5 (GE Healthcare) by amine coupling, and after the antibody was immobilized on it, various antigens were allowed to interact as analytes, to observe changes in the antigen-antibody binding amount. The running buffer and a buffer in which either MTA or adenosine was added to the running buffer were used for antigen dilution, which were prepared in a series of stepwise concentrations. Biacore T200 Evaluation Software (GE Healthcare) was used to calculate the parameters.

B1: MTA0330: anti-MTA antibody from rabbit B cell cloning; H-chain variable region SEQ ID NO: 48, L-chain SEQ ID NO: 49 (antibody, V domains shown)
VH: QEQLVESGGDLVTPGASLTLTCKASGFSFSSSYWMCWVRQAPGKGLEWIACIYSGDGSTYYASWVNGRFTISKTSSTTVTLQMTSLTAADTATYFCARENIFGSGALNLWGPGTLVTVSS
VL: QAVVTQTPSPVSAAVGGTVTISCHSSKSVYSNNRLAWYQQKPGQPPKLLIYQASTLASGVASRFSGSGSGTQFTLTISGVQCDDAATYYCQGTYYSSGFYFAFGGGTEVVVK
Kd [1]: 14.4 nM | Kd [2]: 63.5 µM | Kd [3]: 187 µM

B2: HumanizedMTA0303 (antibody, V domains shown)
VH: QVQLVESGGGLVKPGGSLRLSCAASGFTFSSAYWMCWVRQAPGKGLEWVACIFASAIYAGSGGSTYYASWAKGRLTISKDTSKNQVVLTMTNMDPVDTATYYCATGYGSSGGGFDELWGQGTLVTVSS
VL: EIVLTQSPATLSLSPGERATLSCQSSESVYANRLSWYQQKPGQPPKLLIYSASTLPSGIPARFSGSGSGTDFTLTISRLEPEDFAVYYCAGLYSGNIPAFGQGTKVEIK
Kd [4]: 10.8 nM | Kd [5]: 41.4 µM | Kd [6]: 211 µM

B3: HumanizedMTA0330 (antibody, V domains shown)
VH: QVQLVESGGGLVQPGGSLRLSCSASGFTFSSSYWMCWVRQAPGKGLEWVGCIYSGDGSTYYASWVNGRLTISKDTSKSQVVLTMTNMDPVDTATYYCARENIFGSGALNLWGQGTLVTVSS
VL: DIQVTQSPSSLSASVGDRVTITCHSSKSVYSNNRLAWYQQKPGQPPKLLIYQASTLASGVPSRFSGSGSGTEFTLTISSLQPDDFATYYCQGTYYSSGFYFAFGQGTKVEIK
Kd [4]: 8.88 nM | Kd [5]: 44.8 µM | Kd [6]: 84.7 µM

B4: MTA0303: anti-MTA antibody from rabbit B cell cloning; H-chain variable region SEQ ID NO: 46, L-chain SEQ ID NO: 47 (antibody, V domains shown)
VH: QSLEESGGDLVKPGASLTLTCTASGFSFSSAYWMCWVRQAPGKGLEWTACIFASAIYAGSGGSTYYASWAKGRFTISKTSSTTVTLQMTSLTAADTATYFCATGYGSSGGGFDELWGPGTLVTVSS
VL: AQVLTQTASSVSAAVGGTVTISCQSSESVYANRLSWYQQKPGQPPKLLIYSASTLPSGVPSRFKGSGSGTQFTLTISDLECDDVGTYYCAGLYSGNIPAFGGGTEVVVK
Kd [1]: 2.46 nM | Kd [2]: 11.4 µM | Kd [3]: 119 µM

B5: 6RS2T007H-F760mnN17/6RS2T007L-KT0: MTA-dependent anti-hIL-6R antibody; H-chain variable region SEQ ID NO: 57, L-chain variable region SEQ ID NO: 58 (antibody, V domains shown)
VH: QVQLVQSGAEVKKPGASVKVSCKVSNIVLMQHTYGWVRQPPGKGLEWIGIIGGDGHAWYPRWVKGRFTISKDNSKNQVVLTMTNMDPVDTATYYCARGGKDGFTNAWDPWGQGTLVTVSS
VL: DIQLTQSPSSLSASVGDRVTITCQSSQSVFNNNGLSWYQQKPGQPPKLLIYDASTLASGVPSRFSGSGSGTDFTLTINSLEAEDAATYYCHGSQATQIWWDNAFGGGTEVVVK
amount of antigen (hIL-6R) binding (hIL-6R [7]): changes stepwise according to the MTA concentration

B6: Humanized SMB0002: adenosine-binding antibody, library template; heavy chain variable region SEQ ID NO: 31, light chain variable region SEQ ID NO: 32 (antibody, V domains shown)
VH: QVQLVQSGAEVKKPGASVKVSCKVSGIDLTNYAMGWVRQPPGKGLEWIGIIGADSSTWYPSWVKGRFTISKDTSKNQVVLTMTNMDPVDTATYYCARGRFVGYTNAFDPWGQGTLVTVSS
VL: DIQLTQSPSSLSASVGDRVTITCQSSQSVWNNNYLSWYQQKPGQPPKLLIYDASTLASGVPSRFSGSGSGTDFTLTINSLEAEDAATYYCHGSYANSGWYDNAFGGGTEVVVK
Kd [8]: 3.8 µM | Kd [9]: 64 nM

B7: C03H-BH076N17/C03L-KT0: antibody binding hIL-6R MTA-dependently; heavy chain variable region SEQ ID NO: 54, light chain variable region SEQ ID NO: 55 (antibody, V domains shown)
VH: QVQLVQSGAEVKKPGSSVKVSCKASGGTFSSYAISWVRQAPGQGLEWMGGIIPIFGTANYAQKFQGRVTITADESTSTAYMELSSLRSEDTAVYYCARFHVMSSFEIWGQGTLVTVSS
VL: DIQMTQSPSSLSASVGDRVTITCRASQSISSYLNWYQQKPGKAPKLLIYAASSLQSGVPSRFSGSGSGTDFTLTISSLQPEDFATYYCLQFNNDPLTFGGGTKVEIK
amount of binding to hIL-6R (hIL-6R [10]; different concentrations of MTA): showed stronger binding activity to hIL-6R as MTA concentration increased | amount of binding to hIL-6R (hIL-6R [10]; different concentrations of adenosine): no binding to hIL-6R was observed at any concentration
